Measurements reported in the Human Domainome abundance scans (Beltran et al. 2025).
± gives the uncertainty stated by the source.

B1: LIM and senescent cell antigen-like-containing domain protein 2, residues 13 to 71; numbered along this chain, Q7Z4I7 (parent)
chain: AVCQRCQARFSPAERIVNSNGELYHEHCFVCAQCFRPFPEGLFYEFEGRKYCEHDFQML

Variants of: B1
Test: abundance fitness (aPCA) (normalised: wild type 0, dead -1); higher = more abundant; growth selection in yeast, the domain comes from the species named
Conditions: Homo sapiens

Question: For AVCQRCQARFSPAERIVNSNGELYHEHCFVCAQCFRPFPEGLFYEFEGRKYCELDFQML [H54L], which abundance fitness is on record?
Answer: The abundance fitness was -0.017 ± 0.053.

Question: With AVCQRCQARFSPAERIVNSNGELYHEHCFVCAQCFRPFPEGLFYEFEGRKYCETDFQML [H54T] as the variant, how does the abundance fitness read?
Answer: The abundance fitness was 0.235 ± 0.078.

Question: For AVCQRCQARFSPAERIVNSNGELYHEHCFVCAQCFRPFPEGLFYEFEGRKYCEGDFQML [H54G], which abundance fitness is on record?
Answer: Its abundance fitness is 0.027 ± 0.067.

Question: With AVCQRCQARFSPAERIVNSNGELYHEHCFVCAQCFRPFPEGLFYEFEGRKYCECDFQML [H54C] as the variant, how does the abundance fitness read?
Answer: The abundance fitness was 0.074 ± 0.16.

Question: For AVCQRCQARFSPAERIVNSNGELYHEHCFVCAQCFRPFPEGLFYEFEGRKYCENDFQML [H54N], which abundance fitness is on record?
Answer: The abundance fitness was 0.137 ± 0.12.

Question: For AVCQRCQARFSPAERIVNSNGELYHEHCFVCAQCFRPFPEGLFYEFEGRKYCEPDFQML [H54P], which abundance fitness is on record?
Answer: Its abundance fitness is 0.034 ± 0.079.

Question: Which abundance fitness does the source give for AVCQRCQARFSPAERIVNSNGELYHEHCFVCAQCFRPFPEGLFYEFEGRKYCEFDFQML [H54F] here?
Answer: The abundance fitness was -0.01 ± 0.13.

Question: Which abundance fitness does the source give for AVCQRCQARFSPAERIVNSNGELYHEHCFVCAQCFRPFPEGLFYEFEGRKYCEEDFQML [H54E] here?
Answer: The abundance fitness was 0.189 ± 0.08.

Question: Which abundance fitness does the source give for AVCQRCQARFSPAERIVNSNGELYHEHCFVCAQCFRPFPEGLFYEFEGRKYCEIDFQML [H54I] here?
Answer: The abundance fitness was 0.14 ± 0.14.

Question: Which abundance fitness does the source give for AVCQRCQARFSPAERIVNSNGELYHEHCFVCAQCFRPFPEGLFYEFEGRKYCEQDFQML [H54Q] here?
Answer: The abundance fitness was 0.045 ± 0.08.

Question: Which abundance fitness does the source give for AVCQRCQARFSPAERIVNSNGELYHEHCFVCAQCFRPFPEGLFYEFEGRKYCESDFQML [H54S] here?
Answer: Its abundance fitness is 0.094 ± 0.063.

Question: With AVCQRCQARFSPAERIVNSNGELYHEHCFVCAQCFRPFPEGLFYEFEGRKYMEHDFQML [C52M] as the variant, how does the abundance fitness read?
Answer: The abundance fitness was -0.673 ± 0.13.

Question: For AVCQRCQARFSPAERIVNSNGELYHEHCFVCAQCFRPFPEGLFYEFEGRKYREHDFQML [C52R], which abundance fitness is on record?
Answer: The abundance fitness was -0.839 ± 0.11.

Question: Which abundance fitness does the source give for AVCQRCQARFSPAERIVNSNGELYHEHCFVCAQCFRPFPEGLFYEFEGRKYQEHDFQML [C52Q] here?
Answer: The abundance fitness was -0.597 ± 0.14.

Question: For AVCQRCQARFSPAERIVNSNGELYHEHCFVCAQCFRPFPEGLFYEFEGRKYIEHDFQML [C52I], which abundance fitness is on record?
Answer: The abundance fitness was -0.918 ± 0.24.

Question: Which abundance fitness does the source give for AVCQRCQARFSPAERIVNSNGELYHEHCFVCAQCFRPFPEGLFYEFEGRKYPEHDFQML [C52P] here?
Answer: The abundance fitness was -0.949 ± 0.17.

Question: For AVCQRCQARFSPAERIVNSNGELYHEHCFVCAQCFRPFPEGLFYEFEGRKYGEHDFQML [C52G], which abundance fitness is on record?
Answer: Its abundance fitness is -0.731 ± 0.084.

Question: With AVCQRCQARFSPAERIVNSNGELYHEHCFVCAQCFRPFPEGLFYEFEGRKYHEHDFQML [C52H] as the variant, how does the abundance fitness read?
Answer: Its abundance fitness is -0.486 ± 0.28.

Question: For AVCQRCQARFSPAERIVNSNGELYHEHCFVCAQCFRPFPEGLFYEFEGRKYVEHDFQML [C52V], which abundance fitness is on record?
Answer: The abundance fitness was -0.93 ± 0.11.

Question: For AVCQRCQARFSPAERIVNSNGELYHEHCFVCAQCFRPFPEGLFYEFEGRKYTEHDFQML [C52T], which abundance fitness is on record?
Answer: Its abundance fitness is -0.952 ± 0.16.

Question: Which abundance fitness does the source give for AVCQRCQARFSPAERIVNSNGELYHEHCFVCAQCFRPFPEGLFYEFEGRKYDEHDFQML [C52D] here?
Answer: The abundance fitness was -0.622 ± 0.16.

Question: For AVCQRCQARFSPAERIVNSNGELYHEHCFVCAQCFRPFPEGLFYEFEGRKYSEHDFQML [C52S], which abundance fitness is on record?
Answer: Its abundance fitness is -0.798 ± 0.12.

Question: With AVCQRCQARFSPAERIVNSNGELYHEHCFVCAQCFRPFPEGLFYEFEGRKYFEHDFQML [C52F] as the variant, how does the abundance fitness read?
Answer: Its abundance fitness is -0.882 ± 0.38.

Question: For AVCQRCQARFSPAERIVNSNGELYHEHCFVCAQCFRPFPEGLFYEFEGRKYAEHDFQML [C52A], which abundance fitness is on record?
Answer: The abundance fitness was -1 ± 0.12.

Question: For AVCQRCQARFSPAERIVNSNGELYHEHCFVCAQCFRPFPEGLFYEFEGRKYWEHDFQML [C52W], which abundance fitness is on record?
Answer: Its abundance fitness is -1.14 ± 0.24.

Question: With AVCQRCQARFSPAERIVNSNGELYHEHCFVCAQCFRPFPEGLFYEFEGRKYEEHDFQML [C52E] as the variant, how does the abundance fitness read?
Answer: Its abundance fitness is -0.719 ± 0.11.

Question: For AVCQRCQARFSPAERIVNSNGELYHEHCFVCAQCFRPFPEGLFYEFEGRKYNEHDFQML [C52N], which abundance fitness is on record?
Answer: The abundance fitness was -0.269 ± 0.27.

Question: For AVCQRCQARFSPAERIVNSNGELYHEHCFVCAQCFRPFPEGLFYEFEGRKYLEHDFQML [C52L], which abundance fitness is on record?
Answer: Its abundance fitness is -0.817 ± 0.09.

Question: Which abundance fitness does the source give for AVCQRCQARFSPAERIVNSNGELYHEHCFVCAQCFRPFPEGLFYEFEGRKYYEHDFQML [C52Y] here?
Answer: The abundance fitness was -0.49 ± 0.19.

Question: With AVCQRCQARFSPAERIVNSNGELYHEHCFVCAQCFRPFPEGLFYEFEGRKYCAHDFQML [E53A] as the variant, how does the abundance fitness read?
Answer: The abundance fitness was -0.216 ± 0.062.

Question: With AVCQRCQARFSPAERIVNSNGELYHEHCFVCAQCFRPFPEGLFYEFEGRKYCMHDFQML [E53M] as the variant, how does the abundance fitness read?
Answer: Its abundance fitness is -0.286 ± 0.091.

Question: Which abundance fitness does the source give for AVCQRCQARFSPAERIVNSNGELYHEHCFVCAQCFRPFPEGLFYEFEGRKYCRHDFQML [E53R] here?
Answer: The abundance fitness was -0.027 ± 0.053.

Question: With AVCQRCQARFSPAERIVNSNGELYHEHCFVCAQCFRPFPEGLFYEFEGRKYCPHDFQML [E53P] as the variant, how does the abundance fitness read?
Answer: The abundance fitness was -0.359 ± 0.11.

Question: For AVCQRCQARFSPAERIVNSNGELYHEHCFVCAQCFRPFPEGLFYEFEGRKYCCHDFQML [E53C], which abundance fitness is on record?
Answer: The abundance fitness was -0.38 ± 0.12.

Question: For AVCQRCQARFSPAERIVNSNGELYHEHCFVCAQCFRPFPEGLFYEFEGRKYCTHDFQML [E53T], which abundance fitness is on record?
Answer: The abundance fitness was -0.235 ± 0.085.

Question: For AVCQRCQARFSPAERIVNSNGELYHEHCFVCAQCFRPFPEGLFYEFEGRKYCLHDFQML [E53L], which abundance fitness is on record?
Answer: The abundance fitness was -0.207 ± 0.061.

Question: For AVCQRCQARFSPAERIVNSNGELYHEHCFVCAQCFRPFPEGLFYEFEGRKYCGHDFQML [E53G], which abundance fitness is on record?
Answer: The abundance fitness was -0.25 ± 0.062.

Question: With AVCQRCQARFSPAERIVNSNGELYHEHCFVCAQCFRPFPEGLFYEFEGRKYCHHDFQML [E53H] as the variant, how does the abundance fitness read?
Answer: The abundance fitness was 0.061 ± 0.16.

Question: Which abundance fitness does the source give for AVCQRCQARFSPAERIVNSNGELYHEHCFVCAQCFRPFPEGLFYEFEGRKYCNHDFQML [E53N] here?
Answer: Its abundance fitness is 0.01 ± 0.14.

Question: With AVCQRCQARFSPAERIVNSNGELYHEHCFVCAQCFRPFPEGLFYEFEGRKYCIHDFQML [E53I] as the variant, how does the abundance fitness read?
Answer: The abundance fitness was -0.147 ± 0.16.

Question: For AVCQRCQARFSPAERIVNSNGELYHEHCFVCAQCFRPFPEGLFYEFEGRKYCVHDFQML [E53V], which abundance fitness is on record?
Answer: The abundance fitness was -0.39 ± 0.086.

Question: For AVCQRCQARFSPAERIVNSNGELYHEHCFVCAQCFRPFPEGLFYEFEGRKYCKHDFQML [E53K], which abundance fitness is on record?
Answer: The abundance fitness was -0.21 ± 0.089.

Question: Which abundance fitness does the source give for AVCQRCQARFSPAERIVNSNGELYHEHCFVCAQCFRPFPEGLFYEFEGRKYCFHDFQML [E53F] here?
Answer: Its abundance fitness is -0.064 ± 0.14.

Question: Which abundance fitness does the source give for AVCQRCQARFSPAERIVNSNGELYHEHCFVCAQCFRPFPEGLFYEFEGRKYCDHDFQML [E53D] here?
Answer: The abundance fitness was 0.169 ± 0.13.

Question: Which abundance fitness does the source give for AVCQRCQARFSPAERIVNSNGELYHEHCFVCAQCFRPFPEGLFYEFEGRKYCWHDFQML [E53W] here?
Answer: Its abundance fitness is -0.186 ± 0.083.
